Data on 24 sequences can be found in the DeepSol protein solubility set.

A short description of this series: soluble on expression in E. coli; label from the status in PepcDB or PDB records.
For “SFLSNVKYNFMRIIKYEFILNDALNQSIIRANAQYLTAAALHNLDEAVKFDMGAYKSSKDDAKITVILRISKTQLYVTAQDEDQPVLLKEMPEIPKTITGSETNLLFFWETHGTKNYFTSVAHPNLFIATKQDYWVCLAGGPPSITDFQILENQA”, the “soluble on expression in E. coli” value is “soluble”.

With “SGAMYIDCDGIKLNAYLDMPKNNPEKCPLCIIIHGFTGHSEERHIVAVQETLNEIGVATLRADMYGHGKSDGKFEDHTLFKWLTNILAVVDYAKKLDFVTDIYMAGHSQGGLSVMLAAAMERDIIKALIPLSPAAMIPEIARTGELLGLKFDPENIPDELDAWDGRKLKGNYVRVAQTIRVEDFVDKYTKPVLIVHGDQDEAVPYEASVAFSKQYKNCKLVTIPGDTHCYDHHLELVTEAVKEFMLEQIAK”, the “soluble on expression in E. coli” value is given as “soluble”.

On to “SGCFGCFSPEVDDDLKPSKPNYHSSDESSGADARRKVAPLATDGGNGYAHSFTFKDLSVATGYFNEANFIGEGGFGKVYKGKINGQMVAVKQLTRDGVQGRNEFLVEVLMLTVLNHPHLVSLVGFCAQGDERLLVYEYMPFGSLESHLFDVPLGKQPLDWNTRMRIAVGVAEGLSYLHNVADPPIIYRDMKAANILLDEDYRPKLSDFGLAKVGPVGDRTHVSTRVMGTYGYCAPDYVVSGKLTMKSDIYSFGVLLLELITGRRIYDASRPKPEQSLLTWSRPFLHDKRKFYRLADPALHGCYPTSALNQLVVISIMCLQDQPHVRPIISDVVIGLNHVASQPYVPERSSVSLSSPARCGSPQYAGTPSRRRGGRRVAQYA”, for which the “soluble on expression in E. coli” value was “soluble”. With “SGDFTWSSNLVFSWNKNEIKDLYGDGQNDLGNRWFLGHPIGVIYDYTMVGIWQEDEIARGDHLNWDPIAEAGDVKLADISGPDGVPDGKIDDNDRTIKGQTTPKWIGGLTNTFTYKDFTLSIFIQTTQGLKKNNSLIGMAGDEMGRRNTTTEIGYWTPENKSNEWRSLRKNSNKHGYGFPCDASYTRIKDITLSYTFPQRMIQKMGIGGLQLYVSGRNLFTFTDWVGWDPEARQVARGNSSWDSTRGETVYDSSNYPMTKSCVFGVNLTF” the entry was “not soluble”. Next, “SGDKPPGFRGSRDWIGCVEASLCLAHFGGPQGRLCHVPRGVGLHGEVERLYSHFAGGGGPVMVGGDADARSKALLGVCVGSGTEAYVLVLDPHYWGTPKSPSELQAAGWVGWQEVSAAFDPNSFYNLCLTSLSSQQQQRTLD”: “soluble”. Next, “SGGPGTKSGEPLCPPLLCNQDKETLTLLIQVPRIQPQSLQGDLNPLWYKLRFSAQDLVYSFFLQFAPENKLSTTEPVISISSNNAVIELAKSPESHGHWREWYYGVNNDSLELQECSNSDQLQGKEERVNEESHLTEKEYIEHCNTPTTDSDSSIAVKALQIDSFGLVTCFQQESLDVSQMILGKSQQPESKMQSEFIKEKSATCSNEEKDNLNESVITEEKETDGDHLSSLLNKTTVHNIPGFDSIKETNMQDGSVQVIKDHVTNCAFSFQNSLLYDLD”: “soluble”; “SGGTSSSTAHLAVVNIIGTIDSSNQSVNSEDTNKALERAFEAKNSKAVALNINSPGGSPVQSDEIWQEIRYLKKQHPDKKVYAVIGDMGASGAYYIASAADEIIVNPSSLVGSIGVIMPNYGITGLAQKLGIEDRTLTSGSNKDILSMTKPVNPAQREHIQSVLDNVHAHFINAVKEGRGTRLKSNDPAIFSGLFWTGEQAIQLGVAD”: “not soluble”; “SGIAVSDDCVQKFNELKLGHQHRYVTFKMNASNTEVVVEHVGGPNATYEDFKSQLPERDCRYAIFDYEFQVDGGQRNKITFILWAPDSAPIKSKMMYTSTKDSIKKKLVGIQVEVQATDAAEISEDAVSERAKKDVK”: “soluble”. “SGSHTALIEVKGMIADDEPASADNIVTALRAAFKDEGTKGIVLRINSPGGSPVQSGYIYDEIRRLRGEHPNVKVYAVISDLGASGAYYIASAADQIYADKASLVGSIGVTAASFGFVGTMEKLGVERRVYTSGEHKSFLDPFQPQKPEETQFWQQVLDTTHKQFIDSVKKGRGDRLKVEGHPELFSGLVWSGEQALQLGLIDGLGNASYVAREVVKEKKIEDYTVQESPFDRFAKKFGASVAERLALWMGWQGPVLR”: the “soluble on expression in E. coli” value is on record as “not soluble”.

Consider “SHEELNDQLRVRREKLKKIEELGVDPFGKRFERTHKAEELFELYGDLSKEELEEQQIEVAVAGRIMTKRGMGKAGFAHIQDVTGQIQIYVRQDDVGEQQYELFKISDLGDIVGVRGTMFKTKVGELSIKVSSYEFLTKALRPLPEKYHGLKDIEQRYRQRYLDLIMNPESKKTFITRSLIIQSMRRYLDSHGYLEVETPMMHAVAGGAAARPFITHHNALDMTLYMRIAIELHLKRLIVGGLEKVYEIGRVFRNEGISTRHNPEFTMLELYEAYADFRDIMKLTENLIAHIATEVLGTTKIQYGEHLVDLTPEWRRLHMVDAIKEYVGVDFWRQMSDEEARELAKEHGVEVAPHMTFGHIVNEFFEQKVEDKLIQPTFIYGHPVEISPLAKKNPDDPRFTDRFELFIVGREHANAFTELNDPIDQRQRFEEQLKEREQGNDEAHEMDEDFLEALEYGMPPTGGLGIGVDRLVMLLTNSPSIRDVLLFPQMRHK”, for which the “soluble on expression in E. coli” value is given as “soluble”. For “SHKLPSGPPMHHFNSRYSETGCVGMQIRDAHEENPESILDEHVQRVMKTPGCQSPGTGRHSPKSRSPDGH”, the “soluble on expression in E. coli” value is given as “soluble”. Next, “SHMAPEDPNEEAVSQIFPDSVMLAVQEGIDLLTFPPAPGSPE”: “soluble”; “SILEGGGVMNLNPGNNLLHQPPAWTDSYSTCNVSSGFFGGQWHEIHPQYWTKYQVWEWLQHLLDTNQLDANCIPFQEFDINGEHLCSMSLQEFTRAAGTAGQLLYSNLQHLKWNGQCSSDLFQSTHNVIVKTEQTEPSIMNTWKDENYLYDTNYGSTVDLLDSKTFCRAQISMTTTSHLPVAESPDMKKEQDPPAKCHTKKHNPRGTHLWEFIRDILLNPDKNPGLIKWEDRSEGVFRFLKSEAVAQLWGKKKNNSSMTYEKLSRAMRYYYKREILERVDGRRLVYKFGKNARGWRENEN”: “soluble”; “SIVLEPIYWNSSNSKFLPGQGLVLYPQIGDKLDIICPKVDSKTVGQYEYYKVYMVDKDQADRCTIKKENTPLLNCAKPDQDIKFTIKFQEFSPNLWGLEFQKNKDYYIISTSNGSLEGLDNQEGGVCQTRAMKILMKVGQDAS”: “soluble”. Next, “SKIFDFVKPGVITGDDVQKVFQVAKENNFALPAVNCVGTDSINAVLETAAKVKAPVIVQFSNGGASFIAGKGVKSDVPQGAAILGAISGAHHVHQMAEHYGVPVILHTDHCAKKLLPWIDGLLDAGEKHFAATGKPLFSSHMIDLSEESLQENIEICSKYLERMSKIGMTLEIELGCTGGEEDGVDNSHMDASALYTQPEDVDYAYTELSKISPRFTIAASFGNVHGVYKAGNVVLTPTILRDSQEYVSKKHNLPHNSLNFVFHGGSGSTAQEIKDSVSYGVVKMNIDTDTQWATWEGVLNYYKANEAYLQGQLGNPKGEDQPNKKYYDPRVWLRAGQTSMIARLEKAFQELNAIDVL”: “soluble”; “SKIKDAKKPSFPWFGMDIGGTLVKLSYFEPIDITAEEEQEEVESLKSIRKYLTSNVAYGSTGIRDVHLELKDLTLFGRRGNLHFIRFPTQDLPTFIQMGRDKNFSTLQTVLCATGGGAYKFEKDFRTIGNLHLHKLDELDCLVKGLLYIDSVSFNGQAECYYFANASEPERCQKMPFNLDDPYPLLVVNIGSGVSILAVHSKDNYKRVTGTSLGGGTFLGLCSLLTGCESFEEALEMASKGDSTQADKLVRDIYGGDYERFGLPGWAVASSFGNMIYKEKRESVSKEDLARATLVTITNNIGSVARMCAVNEKINRVVFVGNFLRVNTLSMKLLAYALDYWSKGQLKALFLEHEGYFGAVGALLGLPNFS”: “soluble”; “SKKVIVIAGTTGVGKSQLSIQLAQKFNGEVINSDSMQVYKDIPIITNKHPLQEREGIPHHVMNHVDWSEEYYSHRFETECMNAIEDIHRRGKIPIVVGGTHYYLQTLFNKRVDTKSSERKLTRKQLDILESTDPDVIYNTLVKCDPDIATKYHPNDYRRVQRMLEIYYKTGKKPSETFNEQKITLKFDTLFLWLYSKPEPLFQRLDDRVDDMLERGALQEIKQLYEYYSQNKFTPEQCENGVWQVIGFKEFLPWLTGKTDDNTVKLEDCIERMKTRTRQYAKRQVKWIKKMLIPDIKGDIYLLDATDLSQWDTNASQRAIAISNDFISNRPIKQERAPKALEELLSKGETTMKKLDDWTHYTCNVCRNADGKNVVAIGEKYWKIHLGSRRHKSNLKRNTRQADFEKWKI”: “soluble”. Next, “SKLLDKDGKVFAEVGTERREYIEYKDIPETLKNAILTTEDARFYEHDGIDPIRLGGAVVANVTDGFGAEGASTLSQQIIKMSYLDYTNKTLARKAQEAWLALQLEEKYSKNDILEIYVNKVYMSDRVHGMQTAAEHYFGKNVKDLTLAETALLAGMPQSPNNYNPYDHP”: “not soluble”; “SKLNERSVAHYALSDSPADHMGFLRTWGGPGTPPTPSGTGRRCWFVLKGNLLFSFESREGRAPLSLVVLEGCTVELAEAPVPEEFAFAICFDAPGVRPHLLAAEGPAAQEAWVKVLSRASFGYMRLVVRELESQLQDARQSLALQRRSSWKSVASRCKPQAPNHRAAGLENGHCLSKDSSPVGLVEEAGSRSAGWGLAEWELQGPASLLLGKGQSPVSPETSCFSTLHDWYGQEIVELRQCWQKRAQGSHSKCEEQDRP”: “soluble”. Turning to “SKLVYRNLARNGPGSVKLVPEEEDDLWHAYNLIVPGDTLQSVTVRKVLREMASGGRDAERVRLKLEIVVESVDYDKEGSVLRVRGKNITENDHVKIGQFHTVELELKRQFTLTKELWDWLALDTIQQACDPTASADLAVILMQEGLAHLFLIGRSITVTRARIETSIPRKHGPAIAGYESALKKFFEHVLQVNEKCFLKEMIILMKPIWTDALLNLPTGFPEAY”, the “soluble on expression in E. coli” value is “soluble”. With “SKNPHLPQPVRVTVGPNAPPVFGMFYPDRYMVGVDCILVDGMFVSRSRFEKLGGSLMAKWYRSIRVVDTAEPLGAWLERHNLPVFTGKARQRRQRGAPSTN” the entry was “soluble”.

With “SKYVDRVIAEVEKKYADEPEFVQTVEEVLSSLGPVVDAHPEYEEVALLERMVIPERVIEFRVPWEDDNGKVHVNTGYRVQFNGAIGPYLGGLRFAPSVNLSIMKFLGFEQAFKDSLTTLPMGGAKGGSDFDPNGKSDREVMRFCQAFMTELYRHIGPDIDVPAGDLGVGARELGYMYGQYRKIVGGFYNGVLTGKARSFGGSLVRPEATGYGSVYYVEAVMKHENDTLVGKTVALAGFGNVAWGAAKKLAELGAKAVTLSGPDGYIYDPEGITTEEKINYMLEMRASGRNKVQDYADKFGVQFFPGEKPWGQKVDIIMPCATQNDVDLEQAKKIVANNVKYYIEVANMPTTNEALRFLMQQPNMVVAPSKAVNAGGVLVSGFEMSQNSERLSWTAEEVDSKLHQVMTDIHDGSAAAAERYGLGYNLVAGANIVGFQKIADAMMAQGIAW”, the “soluble on expression in E. coli” value is recorded as “soluble”. With “SLCDKIFHNLSGKTLVATPYVITKGIYHKSLIYMLSHTEEGAIGLIFNRLVNHVDLKSFFKIKEDKITSQVIVPIYLGGPIEHEKGFFLHSRDYNKNLLLDFHNDLAVSSNLEISEDIAFGQGPKNSLFIVGYTAWKPGQLEEELEKNLWLVMDCNKEFIFADNPENKWHNALKHLGIDEMYFSSQIGNA” the entry was “soluble”.

“SLEKRQGLEDIGRVRATIKNEFPSLTLLTQDWGDWDETYKFSQNHNQEYLEANVPSLTTLSKSTKIDFLALYDLNAIELFKGAYHPDMEREVNLHSTPSIRSLVASVLKTNREKKGLFKTDEGLLALVARPILTSEGRGPSHGVIIMGRFLSQLLLSSVGKKCPIPFELFIQDDKRLSAPEKALFAKLSATAPRFTPVFHQGFVYQTYPDIE”: the “soluble on expression in E. coli” value is “not soluble”.
